Results reported in patent EP4628095A1 (Xiamen University, dated 2025).

Key:
P2-4G-BGTSTIP = target: T1, P2-4G-BGTSTIP; assay: SPR (Biacore 8K), HEV-p239 coupled to CM5 chip (Fig. 12)
T1 construct: also called PA-4G-BGTSTIP; VHH-BGTSTIP

[1] = target: P2-2C-RBD (insect cell expression system); assay: SPR (Biacore 8K), HEV-p239 coupled to CM5 chip (Fig. 10A)
[2] = target: P1-1G-RBD (insect cell expression system); assay: as above

Measured: binding result

B1: HEV-p239 protein (other)
chain: IALTLFNLADTLLGGLPTELISSAGGQLFYSRPVVSANGEPTVKLYTSVENAQQDKGIAIPHDIDLGESRVVIQDYDNQHEQDRPTPSPAPSRPFSVLRANDVLWLSLTAAEYDQSTYGSSTGPVYVSDSVTLVNVATGAQAVARSLDWTKVTLDGRPLSTIQQYSKTFFVLPLRGKLSFWEAGTTKAGYPYNYNTTASDQLLVENAAGHRVAISTYTTSLGAGPVSISAVAVLAPHSV
notes: also called HEV-p239 particles; HEV particles
binds: P2-4G-BGTSTIP | [1] | [2]
